This is an account of results in paper PMC13436963.

Changes are numbered by the printed parent chain. Names and notes keep the numbering of the source.

Assay [1] has as its target EGFP-tagged full-length Drosophila Notch [Drosophila melanogaster]. The experiment in a line: luciferase-coupled co-immunoprecipitation (GFP-trap). The conditions noted are these: S2 cells, Notch-GFP WT, n=4, parent: 1, read off a plot.
Assay [2] deals with T1, Drosophila Notch LNR domain F1563A fused to split firefly luciferase fragments, P07207.
T1 chain: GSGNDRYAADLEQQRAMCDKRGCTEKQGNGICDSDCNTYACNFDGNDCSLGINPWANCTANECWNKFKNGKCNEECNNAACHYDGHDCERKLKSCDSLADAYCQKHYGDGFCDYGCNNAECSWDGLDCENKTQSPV
Nature of the assay: split-luciferase complementation assay. The settings on record: chain shown with the change; S2 cells; bar labelled 'F1563A + F1563A'; n=5; parent: 1.0; read off a plot.

Assay [3] concerns the target T2, Drosophila Notch LNR domain H1570A fused to split firefly luciferase fragments, P07207.
T2 chain: T1 chain with A99F, H106A
Nature of the assay: split-luciferase complementation assay. The conditions noted are these: chain shown with the change; S2 cells; bar labelled 'H1570A + H1570A'; n=5; parent: 1.0; read off a plot.

On to “luciferase-tagged Drosophila Notch LNR domain (residues G1465 to V1600) mutant H1570A [Drosophila melanogaster] / EGFP-tagged full-length Drosophila Notch [Drosophila melanogaster] chain 1 H106A”, for which the ratio to parent in assay [1] (LNR-Luc H1570A) worked out at 0.97.
On to “luciferase-tagged Drosophila Notch LNR domain (residues G1465 to V1600) mutant F1563A [Drosophila melanogaster] / EGFP-tagged full-length Drosophila Notch [Drosophila melanogaster] chain 1 F99A”, for which the ratio to parent in assay [1] (LNR-Luc F1563A) was found to be 1.1.

B1: Drosophila Notch LNR domain fused to split firefly luciferase fragments (LNR–NLuc and LNR–CLuc), P07207 F1563A (N-Luc copy); F1563A (C-Luc copy) (protein)
chain: T1 chain
With B1, the ratio to parent in assay [2] came to 0.96.

B2: Drosophila Notch LNR domain fused to split firefly luciferase fragments (LNR–NLuc and LNR–CLuc), P07207 H1570A (N-Luc copy); H1570A (C-Luc copy) (protein)
chain: T1 chain with A99F, H106A
With B2, the ratio to parent in assay [3] was 0.87.
